Data reported in patent US20250257336A1, “ISOLATED OR ENGINEERED POLYPEPTIDES, MICROORGANISMS AS WELL AS METHOD FOR SYNTHESIZING POLYPHENOLIC PHYTOCHEMICALS PHOSPHATE DERIVATIVE USING THE POLYPEPTIDES OR MICROORGANISMS” (National Taiwan University, priority 2021, published 2025).

test: enzymatic activity of the PPS of interest and its protein mutant strains, genistein as substrate (G7P formation, HPLC); type: biochemical; conditions: Mg2+/ATP, 40° C., 10 minutes, pH 7.8, FIG. 30
Procedure: After vibration-based mixing and centrifugation (13,000 rpm, 4° C., 5 minutes), the resulting supernatant was collected, diluted, and then analyzed by HPLC. The activity unit was defined as the amount of enzyme required to yield 1 nmol of product per unit time.
Once an enzyme was prepared, its protein concentration was diluted to 0.1 mg/mL. The enzyme and the enzyme reaction liquid were mixed at a ratio of 1:1 (v/v) and were allowed to react at 40° C. for 10 minutes, at the end of which methanol was added to dilute the protein tenfold and thereby terminate the reaction. The changes in concentration of genistein (GEN) and G7P (a product of GEN phosphorylation) were analyzed. The catalytic activity of the PPS of interest in the present invention and its mutant strains were subsequently calculated and compared, as shown in FIG. 30. […] The activity test results of other protein mutant strains show no total loss of activity but a trend of decrease in activity. […] However, while the aforesaid important catalytic sites in the active domain for stabilizing the phosphate group were inferred with relatively great certainty, the amino acids in Arm1 either had relatively poor prediction results or had important catalytic sites composed of non-polar amino acids (which when substituted with Ala produce little change in property) such that the combined use of site-directed mutagenesis and enzymatic activity determination lacked accuracy.

Row | Molecule | catalytic activity (relative specific activity) compared with the PPS of interest
1 | K27A: site-directed mutant of the PPS of interest (SEQ ID NO: 13), Lys27 substituted with Ala (protein, listed as Bacillus subtilis) MKKRGVSNMYSVLFRQAEESSQLAGAAGMNLIKLTKHGLPVPDGFIIQTNALARFMEDNQLQETSENVESGIISGTFSDELKDELTSSFYKLRESYRSVAVRSSSASEDLEGASFAGQYETYLNIKTEEEFLAKVKECWASFFSGRVSSYKKKMNNQIAEPLMGIVVQGLIDSEMSGVIFSRNPVTHDDRELLISASYGLGEAVVSGSVTPDTFIVNKSSFEIQKEIGAKEIYMESAAEGIAEKETSEDMRSRFCLTDEQVIELAEITKKTEDLYGYPVDIEFGIADHQIYLLQARPITTIDQDKKAAEEKRSFMITDTDMNDFWLNMESNIEGPVSPLFSSFIVPALEYGLKKSMQKFPIGVVVDEVKLYRGHIYSKNQGGQQPPSEDCGKELFPILSEHMYDIINHTYLPFYRTLDQLAQTEHTAESALDAFQKLKAFYLTAYEEHFNIVFPQILLTNKLQAMYQDIQGESENAHFYEMLTGKMNKSLETDRCLWLFSMEVQENPNLLTIFENNKPEQLQEKLEQTDEGRHFLKNVHEFLQEYGWRSVKSHDLIEQIWVENPYFALANIQNYVRNGYHFDNEFQKTKEKREKLYNEFLENIEDPGLRTEFDRYYQWTLNSANIKDDHHFYIDAMLDAKARIFLLKIGELLAENGVIQDREDLWFLYDDEVEQALLHPVSLQEKAEKRRQIFHEYELAQAPAYLGTPTKEQLKAAEEIVGAVIEDEKNTENHIFGIAASSGIATGPVKIIRDANEFSQFAPGDVLVCKMTTPLWTSLFQDAKAIITDTGGILSHAAIIAREYGIPAVLGTRTATERLRDGDIITVDGSSGKITVVSRS | lost its activity
2 | H629A: site-directed mutant of the PPS of interest, His629 substituted with Ala (protein) MKKRGVSNMYSVLFRQAEESSQLAGAKGMNLIKLTKHGLPVPDGFIIQTNALARFMEDNQLQETSENVESGIISGTFSDELKDELTSSFYKLRESYRSVAVRSSSASEDLEGASFAGQYETYLNIKTEEEFLAKVKECWASFFSGRVSSYKKKMNNQIAEPLMGIVVQGLIDSEMSGVIFSRNPVTHDDRELLISASYGLGEAVVSGSVTPDTFIVNKSSFEIQKEIGAKEIYMESAAEGIAEKETSEDMRSRFCLTDEQVIELAEITKKTEDLYGYPVDIEFGIADHQIYLLQARPITTIDQDKKAAEEKRSFMITDTDMNDFWLNMESNIEGPVSPLFSSFIVPALEYGLKKSMQKFPIGVVVDEVKLYRGHIYSKNQGGQQPPSEDCGKELFPILSEHMYDIINHTYLPFYRTLDQLAQTEHTAESALDAFQKLKAFYLTAYEEHFNIVFPQILLTNKLQAMYQDIQGESENAHFYEMLTGKMNKSLETDRCLWLFSMEVQENPNLLTIFENNKPEQLQEKLEQTDEGRHFLKNVHEFLQEYGWRSVKSHDLIEQIWVENPYFALANIQNYVRNGYHFDNEFQKTKEKREKLYNEFLENIEDPGLRTEFDRYYQWTLNSANIKDDAHFYIDAMLDAKARIFLLKIGELLAENGVIQDREDLWFLYDDEVEQALLHPVSLQEKAEKRRQIFHEYELAQAPAYLGTPTKEQLKAAEEIVGAVIEDEKNTENHIFGIAASSGIATGPVKIIRDANEFSQFAPGDVLVCKMTTPLWTSLFQDAKAIITDTGGILSHAAIIAREYGIPAVLGTRTATERLRDGDIITVDGSSGKITVVSRS | significant decrease in protein activity
3 | H630A: site-directed mutant of the PPS of interest, His630 substituted with Ala (protein) MKKRGVSNMYSVLFRQAEESSQLAGAKGMNLIKLTKHGLPVPDGFIIQTNALARFMEDNQLQETSENVESGIISGTFSDELKDELTSSFYKLRESYRSVAVRSSSASEDLEGASFAGQYETYLNIKTEEEFLAKVKECWASFFSGRVSSYKKKMNNQIAEPLMGIVVQGLIDSEMSGVIFSRNPVTHDDRELLISASYGLGEAVVSGSVTPDTFIVNKSSFEIQKEIGAKEIYMESAAEGIAEKETSEDMRSRFCLTDEQVIELAEITKKTEDLYGYPVDIEFGIADHQIYLLQARPITTIDQDKKAAEEKRSFMITDTDMNDFWLNMESNIEGPVSPLFSSFIVPALEYGLKKSMQKFPIGVVVDEVKLYRGHIYSKNQGGQQPPSEDCGKELFPILSEHMYDIINHTYLPFYRTLDQLAQTEHTAESALDAFQKLKAFYLTAYEEHFNIVFPQILLTNKLQAMYQDIQGESENAHFYEMLTGKMNKSLETDRCLWLFSMEVQENPNLLTIFENNKPEQLQEKLEQTDEGRHFLKNVHEFLQEYGWRSVKSHDLIEQIWVENPYFALANIQNYVRNGYHFDNEFQKTKEKREKLYNEFLENIEDPGLRTEFDRYYQWTLNSANIKDDHAFYIDAMLDAKARIFLLKIGELLAENGVIQDREDLWFLYDDEVEQALLHPVSLQEKAEKRRQIFHEYELAQAPAYLGTPTKEQLKAAEEIVGAVIEDEKNTENHIFGIAASSGIATGPVKIIRDANEFSQFAPGDVLVCKMTTPLWTSLFQDAKAIITDTGGILSHAAIIAREYGIPAVLGTRTATERLRDGDIITVDGSSGKITVVSRS | significant decrease in protein activity
4 | E329A: site-directed mutant of the PPS of interest, Glu329 substituted with Ala (protein) MKKRGVSNMYSVLFRQAEESSQLAGAKGMNLIKLTKHGLPVPDGFIIQTNALARFMEDNQLQETSENVESGIISGTFSDELKDELTSSFYKLRESYRSVAVRSSSASEDLEGASFAGQYETYLNIKTEEEFLAKVKECWASFFSGRVSSYKKKMNNQIAEPLMGIVVQGLIDSEMSGVIFSRNPVTHDDRELLISASYGLGEAVVSGSVTPDTFIVNKSSFEIQKEIGAKEIYMESAAEGIAEKETSEDMRSRFCLTDEQVIELAEITKKTEDLYGYPVDIEFGIADHQIYLLQARPITTIDQDKKAAEEKRSFMITDTDMNDFWLNMASNIEGPVSPLFSSFIVPALEYGLKKSMQKFPIGVVVDEVKLYRGHIYSKNQGGQQPPSEDCGKELFPILSEHMYDIINHTYLPFYRTLDQLAQTEHTAESALDAFQKLKAFYLTAYEEHFNIVFPQILLTNKLQAMYQDIQGESENAHFYEMLTGKMNKSLETDRCLWLFSMEVQENPNLLTIFENNKPEQLQEKLEQTDEGRHFLKNVHEFLQEYGWRSVKSHDLIEQIWVENPYFALANIQNYVRNGYHFDNEFQKTKEKREKLYNEFLENIEDPGLRTEFDRYYQWTLNSANIKDDHHFYIDAMLDAKARIFLLKIGELLAENGVIQDREDLWFLYDDEVEQALLHPVSLQEKAEKRRQIFHEYELAQAPAYLGTPTKEQLKAAEEIVGAVIEDEKNTENHIFGIAASSGIATGPVKIIRDANEFSQFAPGDVLVCKMTTPLWTSLFQDAKAIITDTGGILSHAAIIAREYGIPAVLGTRTATERLRDGDIITVDGSSGKITVVSRS | relatively significant decrease in activity
5 | D627A: site-directed mutant of the PPS of interest, Asp627 substituted with Ala (protein) MKKRGVSNMYSVLFRQAEESSQLAGAKGMNLIKLTKHGLPVPDGFIIQTNALARFMEDNQLQETSENVESGIISGTFSDELKDELTSSFYKLRESYRSVAVRSSSASEDLEGASFAGQYETYLNIKTEEEFLAKVKECWASFFSGRVSSYKKKMNNQIAEPLMGIVVQGLIDSEMSGVIFSRNPVTHDDRELLISASYGLGEAVVSGSVTPDTFIVNKSSFEIQKEIGAKEIYMESAAEGIAEKETSEDMRSRFCLTDEQVIELAEITKKTEDLYGYPVDIEFGIADHQIYLLQARPITTIDQDKKAAEEKRSFMITDTDMNDFWLNMESNIEGPVSPLFSSFIVPALEYGLKKSMQKFPIGVVVDEVKLYRGHIYSKNQGGQQPPSEDCGKELFPILSEHMYDIINHTYLPFYRTLDQLAQTEHTAESALDAFQKLKAFYLTAYEEHFNIVFPQILLTNKLQAMYQDIQGESENAHFYEMLTGKMNKSLETDRCLWLFSMEVQENPNLLTIFENNKPEQLQEKLEQTDEGRHFLKNVHEFLQEYGWRSVKSHDLIEQIWVENPYFALANIQNYVRNGYHFDNEFQKTKEKREKLYNEFLENIEDPGLRTEFDRYYQWTLNSANIKADHHFYIDAMLDAKARIFLLKIGELLAENGVIQDREDLWFLYDDEVEQALLHPVSLQEKAEKRRQIFHEYELAQAPAYLGTPTKEQLKAAEEIVGAVIEDEKNTENHIFGIAASSGIATGPVKIIRDANEFSQFAPGDVLVCKMTTPLWTSLFQDAKAIITDTGGILSHAAIIAREYGIPAVLGTRTATERLRDGDIITVDGSSGKITVVSRS | significant decrease in protein activity
6 | H795A: site-directed mutant of the PPS of interest, His795 substituted with Ala (protein) MKKRGVSNMYSVLFRQAEESSQLAGAKGMNLIKLTKHGLPVPDGFIIQTNALARFMEDNQLQETSENVESGIISGTFSDELKDELTSSFYKLRESYRSVAVRSSSASEDLEGASFAGQYETYLNIKTEEEFLAKVKECWASFFSGRVSSYKKKMNNQIAEPLMGIVVQGLIDSEMSGVIFSRNPVTHDDRELLISASYGLGEAVVSGSVTPDTFIVNKSSFEIQKEIGAKEIYMESAAEGIAEKETSEDMRSRFCLTDEQVIELAEITKKTEDLYGYPVDIEFGIADHQIYLLQARPITTIDQDKKAAEEKRSFMITDTDMNDFWLNMESNIEGPVSPLFSSFIVPALEYGLKKSMQKFPIGVVVDEVKLYRGHIYSKNQGGQQPPSEDCGKELFPILSEHMYDIINHTYLPFYRTLDQLAQTEHTAESALDAFQKLKAFYLTAYEEHFNIVFPQILLTNKLQAMYQDIQGESENAHFYEMLTGKMNKSLETDRCLWLFSMEVQENPNLLTIFENNKPEQLQEKLEQTDEGRHFLKNVHEFLQEYGWRSVKSHDLIEQIWVENPYFALANIQNYVRNGYHFDNEFQKTKEKREKLYNEFLENIEDPGLRTEFDRYYQWTLNSANIKDDHHFYIDAMLDAKARIFLLKIGELLAENGVIQDREDLWFLYDDEVEQALLHPVSLQEKAEKRRQIFHEYELAQAPAYLGTPTKEQLKAAEEIVGAVIEDEKNTENHIFGIAASSGIATGPVKIIRDANEFSQFAPGDVLVCKMTTPLWTSLFQDAKAIITDTGGILSAAAIIAREYGIPAVLGTRTATERLRDGDIITVDGSSGKITVVSRS | total loss of PPS activity
